# Reference: US20110306057A1 (Dana-Farber, published 2011)
# Where a chain is given by its changes, count along the chain named. In names and notes the source's numbering stands.
# B1: wild type (WT) FLAG epitope-tagged version of PP2A Aβ (other, UniProt P30154 1-601, looked up, not shown: small tags and cut ends)
# chain: MAGASELGTGPGAAGGDGDDSLYPIAVLIDELRNEDVQLRLNSIKKLSTIALALGVERTRSELLPFLTDTIYDEDEVLLALAEQLGNFTGLVGGPDFAHCLLPPLENLATVEETVVRDKAVESLRQISQEHTPVALEAYFVPLVKRLASGDWFTSRTSACGLFSVCYPRASNAVKAEIRQQFRSLCSDDTPMVRRAAASKLGEFAKVLELDSVKSEIVPLFTSLASDEQDSVRLLAVEACVSIAQLLSQDDLETLVMPTLRQAAEDKSWRVRYMVADRFSELQKAMGPKITLNDLIPAFQNLLKDCEAEVRAAAAHKVKELGENLPIEDRETIIMNQILPYIKELVSDTNQHVKSALASVIMGLSTILGKENTIEHLLPLFLAQLKDECPDVRLNIISNLDCVNEVIGIRQLSQSLLPAIVELAEDAKWRVRLAIIEYMPLLAGQLGVEFFDEKLNSLCMAWLVDHVYAIREAATNNLMKLVQKFGTEWAQNTIVPKVLVMANDPNYLHRMTTLFCINALSEACGQEITTKQMLPIVLKMAGDQVANVRFNVAKSLQKIGPILDTNALQGEVKPVLQKLGQDEDMDVKYFAQEAISVLALA
# notes: also called wtPP2A Aβ; FLAG-tagged Aβ
# B2: HA-tagged RalA S11A mutant (enzyme, not shown: small tags and cut ends)
# chain: MAANKPKGQNALALHKVIMVGSGGVGKSALTLQFMYDEFVEDYEPTKADSYRKKVVLDGEEVQIDILDTAGQEDYAAIRDNYFRSGEGFLCVFSITEMESFAATADFREQILRVKEDENVPFLLVGNKSDLEDKRQVSVEEAKNRAEQWNVNYVETSAKTRANVDKVFFDLMREIRARKMEDSKEKNGKKKRKSLAKRIRERC
# notes: also called S11A RalA mutant
# B3: HA-tagged wild-type RalA (enzyme, not shown: small tags and cut ends)
# chain: B2 chain with A11S
# notes: phosphorylation state not separated; also called HA-tagged RalA; HA-RalA
# B4: cancer-derived FLAG-tagged PP2A Aβ mutant D504G (other, UniProt P30154 1-601, looked up, not shown: small tags and cut ends)
# chain: B1 chain with D504G
# notes: Overexpressed in HEK TER cells
# B5: cancer-derived FLAG-tagged PP2A Aβ mutant V545A (other, UniProt P30154 1-601, looked up, not shown: small tags and cut ends)
# chain: B1 chain with V545A
# notes: as for B4
# B6: PP2A regulatory subunit B55α (other, UniProt P63151 2-447, looked up)
# chain: AGAGGGNDIQWCFSQVKGAVDDDVAEADIISTVEFNHSGELLATGDKGGRVVIFQQEQENKIQSHSRGEYNVYSTFQSHEPEFDYLKSLEIEEKINKIRWLPQKNAAQFLLSTNDKTIKLWKISERDKRPEGYNLKEEDGRYRDPTTVTTLRVPVFRPMDLMVEASPRRIFANAHTYHINSISINSDYETYLSADDLRINLWHLEITDRSFNIVDIKPANMEELTEVITAAEFHPNSCNTFVYSSSKGTIRLCDMRASALCDRHSKLFEEPEDPSNRSFFSEIISSISDVKFSHSGRYMMTRDYLSVKIWDLNMENRPVETYQVHEYLRSKLCSLYENDCIFDKFECCWNGSDSVVMTGSYNNFFRMFDRNTKRDITLEASRENNKPRTVLKPRKVCASGKRKKDEISVDSLDFNKKILHTAWHPKENIIAVATTNNLYIFQDKVN
# notes: Endogenous protein found in anti-FLAG immune complexes by immunoblot
# B7: cancer-derived FLAG-tagged PP2A Aβ mutant K343E (other, UniProt P30154 1-601, looked up, not shown: small tags and cut ends)
# chain: B1 chain with K343E
# notes: as for B4
# B8: cancer-derived FLAG-tagged PP2A Aβ mutant P65S (other, UniProt P30154 1-601, looked up, not shown: small tags and cut ends)
# chain: B1 chain with P65S
# notes: as for B4
# B9: cancer-derived FLAG-tagged PP2A Aβ mutant G8R (other, UniProt P30154 1-601, looked up, not shown: small tags and cut ends)
# chain: B1 chain with G8R
# notes: Overexpressed in HEK TER cells; the shRNA-resistant form carries silent substitutions only; also called G8R Aβ mutant
# B10: cancer-derived FLAG-tagged PP2A Aβ mutant V448A (other, UniProt P30154 1-601, looked up, not shown: small tags and cut ends)
# chain: B1 chain with V448A
# notes: as for B4
# B11: endogenous RalA (enzyme)
# chain: B2 chain with A11S
# notes: Endogenous protein in cell lysates; also called small GTPase RalA
# B12: GST-tagged SV40 small t antigen (ST) (other)
# chain: MDKVLNREESLQLMDLLGLERSAWGNIPLMRKAYLKKCKEFHPDKGGDEEKMKKMNTLYKKMEDGVKYAHQPDFGGFWDATEVFASSLNPGVDAMYCKQWPECAKKMSANCICLLCLLRMKHENRKLYRKDPLVWVDCYCFDCFRMWFGLDLCEGTLLLWCDIIGQTTYRDLKL
# notes: also called GST-tagged ST; SV40 ST; not shown: GST tag
# Assays:
# [1] = target: B6; experiment: anti-FLAG co-IP from HEK TER cells, immunoblot, densitometry; +++ >90%, ++ 50-90%, + <50%
# [2] = target: T1, PP2A regulatory subunit B56ε (human (endogenous in human HEK TER …, UniProt Q16537 2-467, limits assumed)); experiment: as above
# T1 construct: Endogenous protein found in anti-FLAG immune complexes by immunoblot
# T1 sequence (Q16537 2-467 limits assumed): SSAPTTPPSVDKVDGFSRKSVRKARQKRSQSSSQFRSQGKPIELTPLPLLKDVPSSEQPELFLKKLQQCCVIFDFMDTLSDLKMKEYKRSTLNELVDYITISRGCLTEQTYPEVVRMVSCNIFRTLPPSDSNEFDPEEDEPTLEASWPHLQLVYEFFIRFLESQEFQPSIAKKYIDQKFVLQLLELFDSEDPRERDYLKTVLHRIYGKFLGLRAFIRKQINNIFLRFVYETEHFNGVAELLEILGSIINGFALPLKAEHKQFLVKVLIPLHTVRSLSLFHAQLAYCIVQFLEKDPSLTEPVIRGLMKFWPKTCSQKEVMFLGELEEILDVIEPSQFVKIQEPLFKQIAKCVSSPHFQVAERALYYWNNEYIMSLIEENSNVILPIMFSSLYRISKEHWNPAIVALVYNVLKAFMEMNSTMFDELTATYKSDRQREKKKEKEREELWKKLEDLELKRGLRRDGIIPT
# [3] = target: T2, PP2A catalytic subunit Cα (human (endogenous in human HEK TER or …, UniProt P67775 1-309)); experiment: as above
# T2 construct: Endogenous protein found in anti-FLAG immune complexes by immunoblot or mass spectroscopy; also called PP2A catalytic Cα
# T2 sequence (P67775 whole entry): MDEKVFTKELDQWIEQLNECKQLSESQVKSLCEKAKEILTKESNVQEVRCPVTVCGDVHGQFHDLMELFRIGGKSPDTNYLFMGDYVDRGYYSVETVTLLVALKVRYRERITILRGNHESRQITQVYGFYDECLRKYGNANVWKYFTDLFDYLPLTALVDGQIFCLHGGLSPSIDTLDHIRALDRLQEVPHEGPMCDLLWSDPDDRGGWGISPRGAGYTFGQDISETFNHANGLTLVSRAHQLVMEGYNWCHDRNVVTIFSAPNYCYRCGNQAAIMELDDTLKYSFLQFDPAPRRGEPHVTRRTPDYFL
# [4] = target: T3, PP2A regulatory subunit B56α (human (endogenous in human HEK TER …, UniProt Q15172 2-486, limits assumed)); experiment: as above
# T3 construct: Endogenous protein found in anti-FLAG immune complexes by immunoblot
# T3 sequence (Q15172 2-486 limits assumed): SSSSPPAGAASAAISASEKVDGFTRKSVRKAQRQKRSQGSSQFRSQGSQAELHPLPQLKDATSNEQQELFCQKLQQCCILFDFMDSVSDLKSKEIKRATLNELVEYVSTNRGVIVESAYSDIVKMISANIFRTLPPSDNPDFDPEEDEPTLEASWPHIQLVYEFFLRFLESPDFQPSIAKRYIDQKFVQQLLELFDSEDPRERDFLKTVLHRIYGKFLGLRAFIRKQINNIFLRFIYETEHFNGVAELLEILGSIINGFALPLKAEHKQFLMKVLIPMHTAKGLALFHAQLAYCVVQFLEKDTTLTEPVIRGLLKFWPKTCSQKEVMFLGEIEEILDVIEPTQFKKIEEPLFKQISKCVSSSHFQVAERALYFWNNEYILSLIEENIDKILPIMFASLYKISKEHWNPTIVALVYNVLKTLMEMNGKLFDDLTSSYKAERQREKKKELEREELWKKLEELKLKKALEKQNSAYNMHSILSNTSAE
# [5] = target: B1; experiment: anti-FLAG agarose co-IP from 293T cells, immunoblot
# Method: (A) Immunoblot showing phosphorylated RalA and total RalA levels in HEK TER cells expressing shGFP or shAβ. Immunoprecipitations were performed using a phosphoserine antibody. Immunoblotting was performed using anti-Ral-antibody. WCL=whole cell lysate. (B) Immunoblot showing interaction between Aβ and RalA mutants.
# To determine if these newly identified serine residues were the target of Aβ-containing PP2A complexes, we replaced each of these three serine residues with alanine using site-directed mutagenesis to generate HA-tagged S11A, S183A and S194A RalA mutants. […] We then determined whether these RalA mutants retained the ability to bind Aβ, as follows. Briefly, Aβ-specific complexes were isolated using anti-FLAG agarose followed by immunoblotting using FLAG or RalA specific antibodies.
# [6] = target: B1; experiment: reciprocal co-IP (anti-HA, anti-FLAG agarose) from 293T cells, immunoblot
# Method: HA-tagged wild-type RalA were generated in the retroviral vectors pPs-neo and pBabe-puro. […] The supernatants from the first immunoprecipitation were sequentially incubated with anti-FLAG-agarose (M2), or anti-HA-agarose (HA7) in reciprocal manner. […] Densitometry analysis was performed by using Scion Image Software.
# [7] = target: T4, PP2A regulatory subunit B56γ (human (endogenous in human HEK TER …, UniProt Q13362 1-524)); experiment: anti-FLAG co-IP from HEK TER cells, immunoblot, densitometry
# T4 sequence (Q13362 whole entry): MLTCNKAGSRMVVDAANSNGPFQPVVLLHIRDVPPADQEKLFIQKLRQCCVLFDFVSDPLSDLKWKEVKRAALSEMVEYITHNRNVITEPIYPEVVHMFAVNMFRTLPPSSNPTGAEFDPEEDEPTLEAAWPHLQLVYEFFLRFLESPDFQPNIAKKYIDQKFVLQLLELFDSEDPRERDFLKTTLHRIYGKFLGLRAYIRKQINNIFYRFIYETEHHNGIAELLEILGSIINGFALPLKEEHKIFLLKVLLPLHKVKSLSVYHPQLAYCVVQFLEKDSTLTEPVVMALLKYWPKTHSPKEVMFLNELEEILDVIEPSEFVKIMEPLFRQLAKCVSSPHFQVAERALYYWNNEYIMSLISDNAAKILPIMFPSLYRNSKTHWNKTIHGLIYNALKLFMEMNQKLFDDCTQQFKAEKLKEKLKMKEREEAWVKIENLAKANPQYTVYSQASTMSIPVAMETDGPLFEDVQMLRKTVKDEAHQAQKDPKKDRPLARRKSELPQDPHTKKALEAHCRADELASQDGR
# [8] = target: B1; experiment: anti-FLAG co-IP from HEK TER cells, immunoblot
# [9] = target: T5, cancer-derived FLAG-tagged PP2A Aβ mutant L101P/V448A (UniProt P30154 1-601); experiment: anti-FLAG co-IP from HEK TER cells, immunoblot, densitometry
# T5 construct: Overexpressed in HEK TER cells
# [10] = target: T6, cancer-derived FLAG-tagged PP2A Aβ mutant ΔE344-E388 (Homo sapiens (Human), UniProt P30154 2-601); experiment: as above
# T6 construct: Deletion of exon 9, in-frame deletion of 45 amino acids; Overexpressed in HEK TER cells; also called D344-388
# [11] = target: T4, PP2A regulatory subunit B56γ; experiment: anti-FLAG co-IP from HEK TER cells, immunoblot, densitometry; +++ >90%, ++ 50-90%, + <50%
# [12] = target: T7, FLAG-epitope tagged PP2A Aα (UniProt P30153 1-589); experiment: anti-FLAG (M2) co-IP from 293T cells, RalA immunoblot
# T7 construct: also called wtPP2A Aα; FLAG-tagged Aα
# T7 sequence (P30153 whole entry): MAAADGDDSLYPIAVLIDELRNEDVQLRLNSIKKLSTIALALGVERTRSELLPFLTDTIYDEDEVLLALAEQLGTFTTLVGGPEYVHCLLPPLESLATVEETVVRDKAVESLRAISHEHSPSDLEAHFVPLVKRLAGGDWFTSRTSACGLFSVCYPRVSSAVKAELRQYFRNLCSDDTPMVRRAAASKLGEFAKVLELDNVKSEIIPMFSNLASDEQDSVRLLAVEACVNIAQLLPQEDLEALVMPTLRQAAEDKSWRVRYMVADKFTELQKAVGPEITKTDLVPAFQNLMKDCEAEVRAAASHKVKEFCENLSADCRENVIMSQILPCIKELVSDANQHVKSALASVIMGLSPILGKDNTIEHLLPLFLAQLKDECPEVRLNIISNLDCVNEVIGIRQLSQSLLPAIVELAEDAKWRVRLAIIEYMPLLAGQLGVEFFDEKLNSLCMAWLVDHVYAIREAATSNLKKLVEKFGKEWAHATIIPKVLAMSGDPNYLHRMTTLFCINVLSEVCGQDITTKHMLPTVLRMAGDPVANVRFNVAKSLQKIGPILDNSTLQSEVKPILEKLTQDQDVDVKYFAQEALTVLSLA
# [13] = target: B1; experiment: as above
# [14] = target: B9; experiment: anti-FLAG (M2) co-IP from HEK TER cells, RalA immunoblot
# Method: (§1) Immunoblot analysis was then performed using antibodies specific to RalA (BD Biosciences, San Jose, Calif.) and FLAG (M2).
# [15] = target: B10; experiment: as above
# Method: as §1
# [16] = target: B1; experiment: GST pull-down with glutathione-agarose from 293T lysates, immunoblot
Binder,"binding level (percent, co-immunoprecipitation densitometry) [1] [%]","binding level (percent, co-immunoprecipitation densitometry) [2] [%]","binding level (percent, co-immunoprecipitation densitometry) [3] [%]","binding level (percent, co-immunoprecipitation densitometry) [4] [%]",binding result [7],further results
B1,> 90,> 90,> 90,> 90,,
B2,,,,,,binding result [5]: binds
B3,,,,,,binding result [6]: binds
B4,50 to 90,> 90,< 50,> 90,no binding,
B5,> 90,< 50,< 50,< 50,no binding,
B6,,,,,,binding result [8]: binds; binding result [9]: no binding; binding result [10]: no binding
B7,50 to 90,50 to 90,< 50,< 50,no binding,
B8,> 90,> 90,50 to 90,< 50,,"binding level (percent, co-immunoprecipitation densitometry) [11]: < 50%"
B9,> 90,> 90,50 to 90,> 90,,"binding level (percent, co-immunoprecipitation densitometry) [11]: < 50%"
B10,< 50,< 50,,,no binding,
B11,,,,,,binding result [12]: no binding; binding result [13]: binds; binding result [14]: no binding; binding result [15]: no binding
B12,,,,,,binding result [16]: no binding
